Results from article PMC5888019 (Nucleic Acids Research, 2018).

T1: Xrs2 (Flag-tagged, recombinant) (S. cerevisiae, UniProt P33301 1-854)
T1 sequence (looked up): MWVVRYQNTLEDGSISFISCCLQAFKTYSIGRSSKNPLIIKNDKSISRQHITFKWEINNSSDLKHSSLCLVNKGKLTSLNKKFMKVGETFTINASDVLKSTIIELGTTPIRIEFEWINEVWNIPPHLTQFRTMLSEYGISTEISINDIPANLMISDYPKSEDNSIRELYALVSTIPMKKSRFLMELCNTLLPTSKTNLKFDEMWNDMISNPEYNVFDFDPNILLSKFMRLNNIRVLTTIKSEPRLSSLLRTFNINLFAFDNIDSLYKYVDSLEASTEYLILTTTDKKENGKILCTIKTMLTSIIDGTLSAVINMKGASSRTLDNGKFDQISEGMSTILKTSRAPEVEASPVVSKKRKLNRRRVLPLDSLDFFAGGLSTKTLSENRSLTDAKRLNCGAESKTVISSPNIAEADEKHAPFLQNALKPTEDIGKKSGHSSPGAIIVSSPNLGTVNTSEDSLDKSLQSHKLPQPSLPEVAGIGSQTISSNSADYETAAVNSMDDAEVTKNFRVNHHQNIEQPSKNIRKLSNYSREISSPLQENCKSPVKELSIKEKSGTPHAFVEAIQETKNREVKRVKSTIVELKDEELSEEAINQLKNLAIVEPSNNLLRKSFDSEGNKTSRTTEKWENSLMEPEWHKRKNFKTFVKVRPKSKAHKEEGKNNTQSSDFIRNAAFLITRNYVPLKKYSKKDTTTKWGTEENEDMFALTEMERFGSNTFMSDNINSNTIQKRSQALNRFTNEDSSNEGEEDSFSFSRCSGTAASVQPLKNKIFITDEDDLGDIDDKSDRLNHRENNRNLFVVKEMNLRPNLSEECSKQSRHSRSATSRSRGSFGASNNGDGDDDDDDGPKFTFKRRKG

T2: Rad50 (S. cerevisiae, UniProt P12753 1-1312)
T2 sequence (looked up): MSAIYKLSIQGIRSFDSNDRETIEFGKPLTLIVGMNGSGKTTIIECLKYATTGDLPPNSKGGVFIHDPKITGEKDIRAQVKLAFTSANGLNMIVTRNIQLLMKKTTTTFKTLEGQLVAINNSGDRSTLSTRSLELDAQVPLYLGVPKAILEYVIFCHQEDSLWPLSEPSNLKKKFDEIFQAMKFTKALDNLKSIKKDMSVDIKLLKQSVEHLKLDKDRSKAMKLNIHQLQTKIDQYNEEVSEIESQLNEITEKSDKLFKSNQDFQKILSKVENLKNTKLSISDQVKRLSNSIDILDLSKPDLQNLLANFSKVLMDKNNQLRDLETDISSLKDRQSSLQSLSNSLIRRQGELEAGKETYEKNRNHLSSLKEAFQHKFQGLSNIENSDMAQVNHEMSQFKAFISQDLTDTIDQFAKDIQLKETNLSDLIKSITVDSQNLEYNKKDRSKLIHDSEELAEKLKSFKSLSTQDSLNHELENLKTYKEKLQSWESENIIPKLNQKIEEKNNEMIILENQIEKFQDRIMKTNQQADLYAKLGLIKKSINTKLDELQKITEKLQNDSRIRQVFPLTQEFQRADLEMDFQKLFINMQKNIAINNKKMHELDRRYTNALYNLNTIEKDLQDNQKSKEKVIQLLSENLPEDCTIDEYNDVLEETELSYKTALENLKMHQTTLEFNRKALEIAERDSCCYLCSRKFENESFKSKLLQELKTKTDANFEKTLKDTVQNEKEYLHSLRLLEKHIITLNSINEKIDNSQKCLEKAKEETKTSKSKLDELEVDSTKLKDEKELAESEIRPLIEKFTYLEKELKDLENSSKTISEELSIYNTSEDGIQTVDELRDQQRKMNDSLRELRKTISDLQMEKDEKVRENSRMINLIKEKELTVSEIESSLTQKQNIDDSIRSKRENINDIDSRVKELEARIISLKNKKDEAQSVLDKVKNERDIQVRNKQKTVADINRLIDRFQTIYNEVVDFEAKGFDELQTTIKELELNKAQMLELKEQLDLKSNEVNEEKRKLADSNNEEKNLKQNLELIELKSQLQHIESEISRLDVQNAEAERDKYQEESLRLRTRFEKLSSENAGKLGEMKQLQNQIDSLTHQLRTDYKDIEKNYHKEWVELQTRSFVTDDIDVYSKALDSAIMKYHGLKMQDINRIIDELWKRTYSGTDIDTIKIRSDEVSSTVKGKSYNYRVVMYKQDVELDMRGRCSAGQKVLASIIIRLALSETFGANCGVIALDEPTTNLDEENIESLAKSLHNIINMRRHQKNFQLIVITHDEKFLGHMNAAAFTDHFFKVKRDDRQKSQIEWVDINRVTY

B1: His-tagged Mre11 (wild type) (natural protein, S. cerevisiae, UniProt P32829 1-692, looked up)
chain: MDYPDPDTIRILITTDNHVGYNENDPITGDDSWKTFHEVMMLAKNNNVDMVVQSGDLFHVNKPSKKSLYQVLKTLRLCCMGDKPCELELLSDPSQVFHYDEFTNVNYEDPNFNISIPVFGISGNHDDASGDSLLCPMDILHATGLINHFGKVIESDKIKVVPLLFQKGSTKLALYGLAAVRDERLFRTFKDGGVTFEVPTMREGEWFNLMCVHQNHTGHTNTAFLPEQFLPDFLDMVIWGHEHECIPNLVHNPIKNFDVLQPGSSVATSLCEAEAQPKYVFILDIKYGEAPKMTPIPLETIRTFKMKSISLQDVPHLRPHDKDATSKYLIEQVEEMIRDANEETKQKLADDGEGDMVAELPKPLIRLRVDYSAPSNTQSPIDYQVENPRRFSNRFVGRVANGNNVVQFYKKRSPVTRSKKSGINGTSISDRDVEKLFSESGGELEVQTLVNDLLNKMQLSLLPEVGLNEAVKKFVDKDEKTALKEFISHEISNEVGILSTNEEFLRTDDAEEMKALIKQVKRANSVRPTPPKENDETNFAFNGNGLDSFRSSNREVRTGSPDITQSHVDNESRITHISQAESSKPTSKPKRVRTATKKKIPAFSDSTVISDAENELGDNNDAQDDVDIDENDIIMVSTDEEDASYGLLNGRKTKTKTRPAASTKTASRRGKGRASRTPKTDILGSLLAKKRK
B2: His-tagged Mre11-R522H (natural protein, S. cerevisiae, UniProt P32829 1-692, looked up)
chain: MDYPDPDTIRILITTDNHVGYNENDPITGDDSWKTFHEVMMLAKNNNVDMVVQSGDLFHVNKPSKKSLYQVLKTLRLCCMGDKPCELELLSDPSQVFHYDEFTNVNYEDPNFNISIPVFGISGNHDDASGDSLLCPMDILHATGLINHFGKVIESDKIKVVPLLFQKGSTKLALYGLAAVRDERLFRTFKDGGVTFEVPTMREGEWFNLMCVHQNHTGHTNTAFLPEQFLPDFLDMVIWGHEHECIPNLVHNPIKNFDVLQPGSSVATSLCEAEAQPKYVFILDIKYGEAPKMTPIPLETIRTFKMKSISLQDVPHLRPHDKDATSKYLIEQVEEMIRDANEETKQKLADDGEGDMVAELPKPLIRLRVDYSAPSNTQSPIDYQVENPRRFSNRFVGRVANGNNVVQFYKKRSPVTRSKKSGINGTSISDRDVEKLFSESGGELEVQTLVNDLLNKMQLSLLPEVGLNEAVKKFVDKDEKTALKEFISHEISNEVGILSTNEEFLRTDDAEEMKALIKQVKHANSVRPTPPKENDETNFAFNGNGLDSFRSSNREVRTGSPDITQSHVDNESRITHISQAESSKPTSKPKRVRTATKKKIPAFSDSTVISDAENELGDNNDAQDDVDIDENDIIMVSTDEEDASYGLLNGRKTKTKTRPAASTKTASRRGKGRASRTPKTDILGSLLAKKRK

Tests used:
[1] = molecular target: T1, Xrs2 (Flag-tagged, recombinant); assay: pull-down
[2] = molecular target: T2, Rad50; assay: pull-down

| Binder | binding result [1] | binding result [2] |
| --- | --- | --- |
| B1 | binds | – |
| B2 | binds | binds |
